Data: PMC10850085 (Nature Communications, 2024)

B1: monomeric version of the romiplostim peptide [modified: N-terminal biotin moiety; N-terminal biotin moiety] / murine TpoR ectodomain, monomeric (TpoR_(1-479)) [modified: N-linked glycans at N117, N178, N349; tryptophan mannosylation (W465, … (parent complex)
chain 1: IEGPTLRQWLAARA
chain 2: QDVFLLALGTEPLNCFSQTFEDLTCFWDEEEAAPSGTYQLLYAYRGEKPRACPLYSQSVPTFGTRYVCQFPAQDEVRLFFPLHLWVKNVSLNQTLIQRVLFVDSVGLPAPPRVIKARGGSQPGELQIHWEAPAPEISDFLRHELRYGPTDSSNATAPSVIQLLSTETCCPTLWMPNPVPVLDQPPCVHPTASQPHGPAPFLTVKGGSCLVSGLQAGKSYWLQLRSQPDGVSLRGSWGPWSFPVTVDLPGDAVTIGLQCFTLDLKMVTCQWQQQDRTSSQGFFRHSRTRCCPTDRDPTWEKCEEEEPRPGSQPALVSRCHFKSRNDSVIHILVEVTTAQGAVHSYLGSPFWIHQAVLLPTPSLHWREVSSGRLELEWQHQSSWAAQETCYQLRYTGEGREDWKVLEPSLGARGGTLELRPRARYSLQLRARLNGPTYQGPWSAWSPPARVSTGSE
B2: murine TpoR ectodomain, monomeric (TpoR_(1-479)) [modified: N-linked glycans at N117, N178, N349; tryptophan mannosylation (W465, W468); N-linked glycans at N117, N178, N349; tryptophan mannosylation (W465, W468)] [mouse] / peptide version … (parent complex)
chain 1: B1 chain 2
chain 2: IEGPTLRQWLAARAGGIEGPTLRQWLAARA

Variants of: B1
Experiment: SPR; peak response of the last injection (100 nM TpoR, top concentration of a two-fold dilution series) over immobilised peptide; read off a plot

Variant	response [RU]
chain 1 A12L	~36

Variants of: B2
Experiment: SPR; peak response of the last (highest concentration) injection over immobilised romiplostim peptide; concentration not stated for this panel; read off a plot

Variant	response [RU]
chain 1 F80A	~220
